Measured values as given in patent US20220387586A1 (Hoffmann-La Roche, published 2022).
Each block holds one binder with its values, some of them ahead of it.

Key:
[1] = target: T1, biotinylated PD1-ECD-AviHis (human, UniProt Q15116 25-170, biotinylated); assay: ELISA (hu PD1, as described above)
T1 construct: also called huPD1; hu PD1; not shown: Avi-His tag
Description: After washing (3×90 μl/well with PBST-buffer) 25 μl/well goat-anti-human H+L-POD (JIR, JIR109-036-088)/Sheep-anti-mouse-POD (GE Healthcare; NA9310) was added in 1:2000/1:1000 dilution and incubated at RT for 1 h on shaker. After washing (3×90 μl/well with PBST-buffer) 25 μl/well TMB substrate (Roche Catalogue No. 11835033001) was added and incubated until OD 2-3. Measurement took place at 370/492 nm.

hu PD1-ECD [2] = target: T2, hu PD1-ECD (human, UniProt Q15116 25-170); assay: SPR (Biacore T200), antibody captured by anti-human IgG, hu PD1-ECD as analyte, 25 °C, 1:1 Langmuir fit
T2 construct: SPR analyte; also called human PD1-ECD
Description: Therefore, an anti-human IgG was immobilized by amine coupling to the surface of a (Biacore) CM5 sensor chip. […] The sensor chip surface was regenerated after each analysis cycle. The equilibrium constant and kinetic rate constants were finally gained by fitting the data to a 1:1 langmuir interaction model.
(§1) The samples were injected for 20 seconds with a concentration of 10 nM and bound to the second flow cell.
Finally the double referenced data was fitted to a 1:1 Langmuir interaction model with the Biacore T200 Evaluation Software.

hu PD1-ECD [3] = target: T2, hu PD1-ECD; assay: SPR; row head 'Affinity KD 37° C.'; first of two numbers; first of the two numbers in the cell, row head 37° C.
[4] = target: T1, biotinylated PD1-ECD-AviHis; assay: ligand replacing ELISA; row head 'IC50 PD-L1, 2 [nM]' (ligand not told apart); competing ligand printed only as 'PD-L1, 2'
hu PD1-ECD [5] = target: T2, hu PD1-ECD; assay: SPR; row head 'Affinity KD 37° C.'; second of two numbers, equal to the 25 °C value of Table 3; second of the two numbers in the cell; only 37° C. is printed, split not explained
Description: as §1

[6] = target: T3, human Fc tagged human Lag3 extra cellular domain (human, UniProt P18627 29-450, biotinylated in the epitope binning, the SA CAP SPR and the FACS competition assay); assay: SPR (Biacore T200), huLag3-Fc captured, antibody Fab fragment as analyte, 25 °C
T3 construct: In-house fusion; also called huLag3-Fc; biotinylated, huFc-tagged huLag3; not shown: human Fc tag
T3 sequence: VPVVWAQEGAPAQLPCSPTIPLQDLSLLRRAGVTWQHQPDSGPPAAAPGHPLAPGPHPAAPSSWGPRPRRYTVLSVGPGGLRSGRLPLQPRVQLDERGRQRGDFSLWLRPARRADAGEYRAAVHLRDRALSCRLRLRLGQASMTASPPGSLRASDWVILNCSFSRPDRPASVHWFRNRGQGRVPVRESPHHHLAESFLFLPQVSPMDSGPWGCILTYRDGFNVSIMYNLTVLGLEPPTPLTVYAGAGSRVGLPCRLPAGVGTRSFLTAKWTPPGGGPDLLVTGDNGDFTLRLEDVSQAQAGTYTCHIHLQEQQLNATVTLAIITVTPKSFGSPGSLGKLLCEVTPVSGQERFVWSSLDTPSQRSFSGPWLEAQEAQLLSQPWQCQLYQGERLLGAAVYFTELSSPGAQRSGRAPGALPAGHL
Description: (§2) Therefore two flow cells of a C1 biosensor chip were prepared in a Biacore T200 by immobilizing neutravidin, diluted to 25 μg/ml in acetate buffer pH 4.5, onto it using the ‘immobilization wizard’. […] Then, CaptureSelect™ Biotin Anti-IgG-Fc (Human) Conjugate was bound to the neutravidin, using a 20 μg/ml dilution in running buffer (HBS-EP+, GE Healthcare).
(§3) The method itself consisted of four commands per cycle. […] Second command: sample injection for 120s followed by a 1200s long dissociation at a flow speed of 30 μl/min. Third and fourth command: regeneration by injecting Glycine-HCl pH 1.5 for 30 seconds.

[7] = target: T3, human Fc tagged human Lag3 extra …; assay: SPR (Biacore T200), huLag3-Fc captured, antibody Fab fragment as analyte, 25 °C, 1:1 Langmuir fit; monovalent (first value line); bivalent line is tbd
Description: as §2, §3

[8] = target: T3, human Fc tagged human Lag3 extra …; assay: SPR (Biacore T200), huLag3-Fc captured, antibody Fab fragment as analyte, 25 °C, 1:1 Langmuir fit
Description: as §2, §3

[9] = target: T3, human Fc tagged human Lag3 extra …; assay: FACS, inhibition of biotinylated Lag3:Fc binding to MHC-II on A375 cells (competitor MHC-II); antibody 10 µg/ml
Description: This analysis was studied in a FACS competition experiment: A375 cells (ATCC, #CRL-1619) were cultured for 2-3 passages in EM Eagle's medium supplemented with EBSS (PAN, cat.no. #P04-00509), 10% FBS, 2 mM L-Glutamin, 1×NEAA and 1× Sodium Pyruvate. All antibodies, were diluted in FACS buffer to a final concentration of 20 μg/ml in 25 μl (in 96well U-bottom plates). […] A375 cells were washed with PBS and adjusted to 3×10⁶ cells/ml in PBS. 100 μl were seeded per well in a 96well V-bottom plate. Plates were centrifuged and supernatant was removed. […] After this, cells were washed with 200 μl FACS buffer. […] After staining, cells were again washed and then transferred in 150 μl FACS buffer (PBS/2% FBS) to a U-bottom plate and analyzed on a FACS Canto-II using an HTS module.
All antibodies were used at 10 μg/ml final concentration.

biotinylated-Lag3 [10] = target: T4, biotinylated-Lag3 (UniProt P18627 23-450, limits assumed, biotinylated); assay: ELISA, inhibition of biotinylated-Lag3 binding to MHC-II on A375 cells (competitor MHC-II); first of two numbers
T4 construct: Probably a human LAG3 ECD construct; also called Lag3 (MHCII/ELISA)
T4 sequence (looked up): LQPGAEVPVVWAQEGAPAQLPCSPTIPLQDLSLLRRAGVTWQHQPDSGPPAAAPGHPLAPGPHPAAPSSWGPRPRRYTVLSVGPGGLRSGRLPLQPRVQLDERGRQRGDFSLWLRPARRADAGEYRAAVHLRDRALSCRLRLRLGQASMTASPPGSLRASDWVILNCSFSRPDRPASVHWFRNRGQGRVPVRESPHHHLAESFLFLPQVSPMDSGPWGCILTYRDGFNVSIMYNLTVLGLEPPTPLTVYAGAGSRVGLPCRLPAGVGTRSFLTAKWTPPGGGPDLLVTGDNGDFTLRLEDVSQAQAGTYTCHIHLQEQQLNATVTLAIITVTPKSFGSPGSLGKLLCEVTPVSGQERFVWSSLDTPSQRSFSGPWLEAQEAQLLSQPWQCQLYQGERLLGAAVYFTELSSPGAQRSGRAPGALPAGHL

biotinylated-Lag3 [11] = target: T4, biotinylated-Lag3; assay: ELISA, inhibition of biotinylated-Lag3 binding to MHC-II on A375 cells (competitor MHC-II); second of two numbers

T2 sequence (Q15116 25-170 limits assumed): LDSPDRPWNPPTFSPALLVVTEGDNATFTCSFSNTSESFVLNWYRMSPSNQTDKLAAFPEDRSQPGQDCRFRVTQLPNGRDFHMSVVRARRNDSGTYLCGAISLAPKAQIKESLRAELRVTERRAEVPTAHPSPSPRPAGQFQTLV
T1 sequence (Q15116 25-170): as the sequence (Q15116 25-170 limits assumed) above

EC50 [1]: 200 pM
Kd (hu PD1-ECD [2]): 800 pM
koff (hu PD1-ECD [2]): 0.000307 s⁻¹
kon (hu PD1-ECD [2]): 386000 M⁻¹ s⁻¹
Kd (hu PD1-ECD [3]): 2000 pM
IC50 [4]: 1350 pM
Kd (hu PD1-ECD [5]): 800 pM
B1: chimeric PD1-0103 (antibody, human IgG1, V domains shown)
VH: EVILVESGGGLVKPGGSLKLSCAASGFSFSSYTMSWVRQTPEKRLDWVATISGGGRDIYYPDSVKGRFTISRDNAKNTLYLEMSSLMSEDTALYYCVLLTGRVYFALDSWGQGTSVTVSS
VL: KIVLTQSPASLPVSLGQRATISCRASESVDTSDNSFIHWYQQRPGQSPKLLIYRSSTLESGVPARFSGSGSRTDFTLTIDPVEADDVATYYCQQNYDVPWTFGGGTKLEIK
notes: also called chiPD1-0103

koff [6]: 0.000195 s⁻¹
Kd [7]: 463 pM
B2: aLAG3(0414) Fab fragment (Fab, V domains shown)
VH: EVQLLESGGGLVQPGGSLRLSCAASGFIFDDYTMNWVRQAPGKGLEWVAVISWDGGGTYYTDSVKGRFTISRDDFKNTLYLQMNSLRAEDTAVYYCAKGLTDTTLYGSDYWGQGTLVTVSS
VL: DIQMTQSPSSLSASVGDRVTITCRASQSISSYLNWYQQKPGKAPKLLIYAASTLQSGVPSRFSGSGSGTDFTLTISSLQPEDFATYYCQQTYSSPLTFGGGTKVEIK

koff [6]: 0.000221 s⁻¹
Kd [8]: 28.2 pM
B3: aLAG3(0416) Fab fragment (Fab, V domains shown)
VH: EVQLVESGGGLVQPGGSLRLACAASGFTFSDYAMSWVRQAPGKGLEWVSGIDNSGYYTYYTDSVKGRFTISRDDVKNTLYLQMNSLRAEDTAVYLCTKTHSGLIVNDAFDIWGQGTMVTVSS
VL: DIQLTQSPSSLSASVGDRVTITCRASQSISSYLNWYQQKPGKAPKLLIYDASSLESGVPSRFSGSGSGTDATLTISSLQPEDFATYYCQQSYSTPLTFGGGTKVEIK

% Inhibition [9]: 71.7%
IC50 (biotinylated-Lag3 [10]): 900 pM
IC50 (biotinylated-Lag3 [11]): 600 pM
B4: Reference MDX26H10 (antibody, V domains shown)
VH: QVQLVESGGGVVQPGRSLRLSCAASGFTFSSYGMHWVRQAPGKGLEWVAVIWYDGSNKYYADSVKGRFTISRDNSKNTLYLQMNSLRAEDTAVYYCAREWAVASWDYGMDVWGQGTTVTVSS
VL: not shown
notes: also called MDX-26H10 (26H10); aLAG3(MDX26H10)
